Consider one sequence from publication PMC4634408.

In the series the target is thrombin (human alpha-thrombin as purchased) (Homo sapiens) (UniProt P00734+P00734). The experiment in a line: electrochemical impedance spectroscopy. To be noted: 5'-HS-C6 thiol spacer; EIS with 2.5 mM [Fe(CN)6]3-/4- in phosphate buffer (PB) pH 7.0 with 0.1 M K2SO4; pH 6.6-7.8 and 15-40 C also tested (best pH 7.0, 35 C); standard incubation ….

“TTTGGTTGGTGTGGTTGG [ThA thrombin aptamer (15-mer with dT3 spacer)]”: the binding signal was -28 % dRct/Rct0.
